2 molecules from patent publication US20210139581A1 (Alector, published 2021) can be followed below.

In assay [1] the target is human CD33 on primary human monocyte-derived dendritic cells (human, UniProt P20138 18-364). The experiment in a line: cell-based or functional assay.
Assay [2] deals with T1, human CD33 (human, UniProt P20138 18-259, limits assumed).
T1 construct: Human CD33 immobilized on the BLI sensor tip or the BIAcore C1 chip; also called Siglec-3
The experiment in a line: BLI (ForteBio), Fab 100 nM on immobilized CD33.

In assay [3] the target is T1, human CD33. The experiment in a line: BLI (ForteBio), Fab 100 nM on immobilized CD33; kon/koff columns printed 3 rows too low, assigned by koff/kon = printed KD of AB-63.14. On the procedure:
(§1) The affinities (KD) of the humanized antibodies for human CD33 were measured for each antibody by BioLayer Interferometry in a ForteBio assay according to standard techniques (Estep et al. (2013) MAbs 5(2): 270-8). […] The assay was carried out at room temperature.
(§2) The affinities of AB-H14 and its affinity-matured variants (Table 15) and AB-H63 and its affinity-matured variants (Table 16), for human CD33 were measured by Fortebio assay according to the method described in Example 1 above.

The target in assay [4] is T1, human CD33. Kind of assay: BLI (ForteBio), Fab 100 nM on immobilized CD33; kon/koff columns printed 3 rows too low, assigned by koff/kon = printed KD of AB-63.15. On the procedure:
as §1, §2
On the technique in general: Biolayer interferometry detects binding as a change in optical thickness at a sensor tip.

Sequence of human CD33 on primary human monocyte-derived dendritic cells (P20138 18-364): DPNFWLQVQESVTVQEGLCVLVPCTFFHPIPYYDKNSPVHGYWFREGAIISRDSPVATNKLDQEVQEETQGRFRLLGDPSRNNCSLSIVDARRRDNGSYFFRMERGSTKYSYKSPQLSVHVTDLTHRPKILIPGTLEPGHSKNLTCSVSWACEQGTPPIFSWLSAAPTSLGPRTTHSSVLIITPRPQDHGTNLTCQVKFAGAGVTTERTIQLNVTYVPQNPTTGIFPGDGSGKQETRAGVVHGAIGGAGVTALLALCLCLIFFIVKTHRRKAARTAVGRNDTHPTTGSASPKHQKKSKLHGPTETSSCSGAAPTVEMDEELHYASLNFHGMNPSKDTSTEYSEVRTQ
T1 sequence (P20138 18-259 limits assumed): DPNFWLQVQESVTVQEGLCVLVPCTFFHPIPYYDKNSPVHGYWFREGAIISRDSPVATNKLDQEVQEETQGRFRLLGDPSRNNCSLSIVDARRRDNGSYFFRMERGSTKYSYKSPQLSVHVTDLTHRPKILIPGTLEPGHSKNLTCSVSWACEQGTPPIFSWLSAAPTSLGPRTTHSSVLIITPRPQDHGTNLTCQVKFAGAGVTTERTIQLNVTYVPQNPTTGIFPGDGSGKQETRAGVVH

B1: AB-63.14 (antibody, V domains shown)
VH: QVQLVQSGAEVKKPGSSVKVSCKASGYTFTDYNLHWVRQAPGQGLEWIGFIYPSNGITGYAQKFQGRVTMTVDTSTSTVYMELSSLRSEDTAVYYCARSDVDYFDYWGQGTLVTVSS
VL: DIVLTQSPDSLAVSLGERATIDCKASQDVSTSTYSYMHWYQQKPGQPPKLLIKYASNLESGVPDRFSGSGSGTDFTLTISSLQAEDVAVYYCQHSWEIPLTFGQGTKLEIK
Broadly, the Kd is a measure of binding affinity in units of concentration. Lower therefore signals higher affinity. One may read the koff as a measure of how fast the partners let go of each other. What is called kon is a measure of how fast the partners come together. For the molecule B1, in assay [1], the “Maximal Downregulation (% CD33 remaining)” value was determined as 25.3% and the “Receptor downregulation (EC50)” value came to 0.0519 nM. Besides, in the assay with human CD33 [2], the “Fold affinity improvement over parental Ab (AB-H63)” value came out at 11.2 fold and binding was put at a Kd of 0.244 nM. In the assay with human CD33 [3], this molecule came in with a koff of 0.0002 s⁻¹ and a kon of 819000 M⁻¹ s⁻¹.

B2: AB-63.15 (antibody, V domains shown)
VH: QVQLVQSGAEVKKPGASVKVSCKASGYTFTDYNYHWVRQAPGQGLEWIGFIYPSNGITGYAQKFQGRVTMTVDTSTSTVYMELSSLRSEDTAVYYCARSDVDYFDLWGQGTLVTVSS
VL: DIVLTQSPDSLAVSLGERATINCRASQDVSTSTYSYMHWYQQKPGQPPKLLIKYASNVESGVPDRFSGSGSGTDFTLTISSLQAEDVAVYYCQHSWEIPLTFGQGTKLEIE
Regarding B2, in assay [1], the “Maximal Downregulation (% CD33 remaining)” value was found to be 27.5% and the “Receptor downregulation (EC50)” value is 0.0476 nM. Also, in the assay with human CD33 [2], the “Fold affinity improvement over parental Ab (AB-H63)” value stood at 12.1 fold and the Kd was determined as 0.225 nM. In the assay with human CD33 [4], this molecule gave a koff of 0.000204 s⁻¹ and a kon of 903000 M⁻¹ s⁻¹.
